Results: publication PMC4538829

What was measured:
NM23-H2 D54A/D121A/F60A [1] = target: T1, NM23-H2 D54A/D121A/F60A (UniProt P22392 1-152, D54A;F60A;D121A); test: EMSA
NM23-H2 D54A/D121A [2] = target: T2, NM23-H2 D54A/D121A (UniProt P22392 1-152, D54A;D121A); test: EMSA
NM23-H2 D121A [3] = target: T3, NM23-H2 D121A (UniProt P22392 1-152, D121A); test: EMSA
NM23-H2 G113F [4] = target: T4, NM23-H2 G113F (UniProt P22392 1-152, G113F); test: EMSA
NM23-H2 wild-type = NM23-H2 wild-type (UniProt P22392 1-152); test: ELISA
Chain of NM23-H2 wild-type (P22392 whole entry): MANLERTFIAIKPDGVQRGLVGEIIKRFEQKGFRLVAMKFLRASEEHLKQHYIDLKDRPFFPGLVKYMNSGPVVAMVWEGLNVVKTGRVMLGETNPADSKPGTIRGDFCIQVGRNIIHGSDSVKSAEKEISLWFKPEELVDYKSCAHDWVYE

NM23-H2 D54A/D121A/F60A [5] = target: T1, NM23-H2 D54A/D121A/F60A; test: filter binding
NM23-H2 D54A/D121A [6] = target: T2, NM23-H2 D54A/D121A; test: filter binding
NM23-H2 D121A [7] = target: T3, NM23-H2 D121A; test: filter binding
NM23-H2 G113F [8] = target: T4, NM23-H2 G113F; test: filter binding

T3 sequence (P22392 whole entry D121A): as the sequence (P22392 whole entry) above, with D121A counted along it
T2 sequence (P22392 whole entry D54A/D121A): as the sequence (P22392 whole entry) above, with D54A, D121A counted along it
T1 sequence (P22392 whole entry D54A/F60A/D121A): as the sequence (P22392 whole entry) above, with D54A, F60A, D121A counted along it
T4 sequence (P22392 whole entry G113F): as the sequence (P22392 whole entry) above, with G113F counted along it

TGGGGAGGGTGGGGAGGGTGGGGAAGG (ssDNA) [c-MYC Pu27 (FAM)]
no binding: binding result (NM23-H2 D54A/D121A/F60A [1]) | binding result (NM23-H2 D54A/D121A [2]) | binding result (NM23-H2 D121A [3]) | binding result (NM23-H2 G113F [4])

AGGGTGGGGAGGGTGGGG (structured_DNA) [c-MYC Pu18 G-quadruplex]
530 ± 18 nM: Kd (NM23-H2 wild-type)

TGGGGAGGGTGGGGAGGGTGGGGAAGG (ssDNA) [SS-Pu27 (biotin)]
no binding: binding result (NM23-H2 D54A/D121A/F60A [5]) | binding result (NM23-H2 D54A/D121A [6]) | binding result (NM23-H2 D121A [7]) | binding result (NM23-H2 G113F [8])
